{
  "source": "patent US20040009939A1",
  "about": "“Methods of enhancing immune induction involving MDA-7” (Board of Regent, The University of Texas System, priority 2002, published 2004)",
  "key": {"[1]": {"system": "HUVEC and HMVEC cells", "assay": "Endothelial cell differentiation (tube formation) assay", "format": "cell-based, human", "description": "Endothelial cell differentiation (tube formation) assays were done using an in vitro angiogenesis assay kit (Chemicon, Temecula, Calif.). Briefly, HUVEC and HMVEC cells were grown to 80% confluency, collected, resuspended in growth medium and plated at a concentration of 2×10^4 cells/well in a 96-well plate coated with matrigel (Chemicon, Temecula, Calif.). To the wells, varying concentrations of MDA-7 protein were added and incubated for 24 h at 37° C. Wells that were not treated with MDA-7 protein served as a negative control. The ability of sMDA-7 to inhibit tube formation was determined and quantitated by counting the number of tubes under bright field microscopy. All samples were tested in duplicate. For comparative studies using MDA-7 and endostatin (Calbiochem), cells were plated as described above and exposed to varying concentration of the proteins. […] All other experimental procedures were the same as described above."}, "[2]": {"system": "HUVEC cells", "assay": "Endothelial cell migration assay", "format": "cell-based, human", "settings": "VEGF 100 ng/ml", "description": "Migration assays were performed using HUVEC cells. Cells were starved overnight in basal medium containing 0.5% fetal bovine serum (FBS), collected and re-suspended in the same medium and seeded at a concentration of 1×10^5 cells/well in the upper surface of a 24-well transwell insert with a filter size of 8 μm (Millipore, Cambridge, Mass.). The insert was placed in a 6-well plate that contained medium plus VEGF (100 ng/ml) or VEGF plus MDA-7 (10 ng/ml). The plates containing the transwell were incubated at 37° C. overnight to allow migration. The following day, the wells were disassembled, membranes fixed in crystal violet and the number of cells that had migrated to the lower wells were counted under high power magnification (×40)."}, "[3]": {"system": "HUVEC", "assay": "IP-10 and IFN-γ production by ELISA", "format": "cell-based, human", "settings": "sMDA-7 treated HUVEC supernatant", "description": "HUVEC was seeded in six-well plates (1×10^5/well) and treated with sMDA-7 (10 ng/ml). Cell culture supernatant was collected at 6 h, 24 h, and 48 h after treatment, centrifuged at 1200 rpm, and analyzed for IP-10 and IFN-γ protein production using commercially available ELISA kits. Assays were performed as recommended by the manufacturer (R&D Systems, Minneapolis, Minn.). Cells treated with recombinant IFN-γ served as positive controls for IP-10 while cells treated with Ad-mda7 (3000 vp/cell) served as positive control for IFN-γ. Untreated cells served as negative controls in these experiments. Samples were analyzed in quadruplicate and data represented as the average value for each concentration of sMDA-7 tested."}, "[4]": {"system": "STAT-3", "assay": "pSTAT-3 Western blot and immunofluorescence", "format": "cell-based, human", "description": "To determine the regulation of pSTAT-3 expression following the addition of sMDA-7, Western blot analysis was performed as described previously (Wang et al., 2002). Briefly, cells were harvested by trypsinization and resuspended in lysis buffer (62.5 mM Tris-HCl, 2% SDS, 10% glycerol, 4 M urea). Protein samples (50 μg) were each diluted into a 20 μl solution of lysis buffer and 5% 2-mercaptoethanol (Bio-Rad Laboratories, Hercules, Calif.) and heated in a water bath at 95° C. for 5 min. Protein extracts were then separated by 10% SDS-PAGE in a vertical-slab gel electrophoresis cell (Bio-Rad). The separated proteins were transferred from gel to nitrocellulose membrane (Hybond-ECL; Amersham Pharmacia Biotech, Buckinghamshire, England) and then blocked in a blocking solution (5% dry milk and 0.3% Tween 20 in PBS) for 1 hour. Membranes were incubated with the primary antibodies against pSTAT-3 (1:1000), and β-actin (1:10000). The membranes were then incubated with horseradish peroxidase-labeled secondary antibodies (Amersham). Finally, the proteins were visualized on enhanced chemiluminescence film (Hyperfilm, Amersham) by application of Amersham's Enhanced Chemiluminescence Western blotting detection system.\nActivation of STAT-3 was also determined by immunofluorescence assay. HUVEC seeded in two-well chamber slides (1×10^4 cells/well) was treated with sMDA-7 (10 ng/ml) for 4 h, washed in PBS, fixed in cold acetic acid and stained for phosphorylated STAT-3 (pSTAT-3) using rabbit anti-human pSTAT-3 antibody (1:1000, Cell Signaling Technology, Beverly, Mass.) and rhodamine labeled anti-rabbit secondary antibody (1:5000; Molecular Probes, Eugene, Oreg.). Slides were mounted using anti-fade mounting reagent (Vector Laboratories). Pictures were taken 1-2 h after staining using a fluorescence microscope."}, "[5]": {"system": "bFGF-induced angiogenesis", "assay": "In vivo angiogenesis Matrigel assay", "parameters": "species or system athymic nude mice", "description": "To determine the anti-angiogenic activity of sMDA-7, an in vivo angiogenesis assay was performed. Briefly, sMDA-7 and bFGF were mixed with 500 μl of matrigel (Beckton and Dickenson) on ice and injected subcutaneously into athymic nude mice. Animals receiving matrigel containing only bFGF (60 ng) served as a positive control while animals receiving matrigel containing no growth factor served as a negative control. Each group consisted of 5 animals. Experiments were terminated on day 10 and the matrigel was harvested, photographed and subjected to hemoglobin analysis as described previously (Caudel et al., 2002)."}, "[6]": {"assay": "Serum sMDA-7 by ELISA", "format": "in vivo, nude mice", "settings": "animals implanted with 293 cells producing MDA-7", "from_the_text": "Mice were inoculated subcutaneously with A549 tumor cells in the lower right flank as described in Example 19. When the tumors had reached a size of 50 mm^3, 293 cells producing sMDA-7 (293-mda-7) or parental 293 cells (control) were encapsulated in matrigel and implanted subcutaneously at a site distant (upper right flank) from the tumor and the tumor growth was monitored. […] In comparison to the control, the growth of the tumors was suppressed by 50% after implantation of the encapsulated 293 cells producing MDA-7 protein. To confirm that the inhibitory effect was due to sMDA-7, serum samples from animals were tested for MDA-7 protein by Western blot analysis and ELISA. […] However, faint bands were also observed in the control that may be due to some cross-reactivity with serum proteins. The serum levels of sMDA-7 detected by ELISA was approximately 50 ng/ml."}, "[7]": {"system": "tumor cells", "assay": "Tumor cell death by secreted MDA-7 supernatant and bystander mixing", "format": "cell-based, human", "settings": "supernatant from 293 cells applied to tumor cell cultures", "description": "This hypothesis was further tested by adding secreted MDA-7 to tumor cells and monitoring cell death. […] When culture supernatants were treated to minimize Ad-mda7 contamination, negligible cell death was induced by MDA-7 containing supernatants. When supernatant from 293 cells was applied to tumor cell cultures, only low levels of cell death were seen (approximately 10-15% above background levels) confirming that the secreted MDA-7, at least at the concentrations released by these cells, was not sufficient to elicit substantial cell death in tumor cells.\nIn that study, H460 cells were transduced with Ad-mda7 and immunostained with anti-MDA-7 antibody in conjunction with Annexin V staining. By confocal analysis, it was observed that some cells were Annexin V positive but were negative for MDA-7 expression. The frequency of Annexin V positive/MDA-7 negative cells was low and […] in multiple cells lines. Thus, to further evaluate the contribution of secreted MDA-7 in inducing apoptosis in neighboring cells, a series of bystander experiments were performed. Ad-mda7 transduced cells were mixed with native cells that had been previously labled with Ad-GFP and the cultures were scored for apoptosis in the GFP positive cells."}, "[8]": {"system": "human PBMC", "settings": "cited from earlier work"}},
  "note": "“Also recorded” adds a separate entry of the source.",
  "data": [
    {"molecule": "sMDA-7: secreted, glycosylated MDA-7 protein purified from supernatant of 293-mda-7 cells (protein) AQGQEFHFGPCQVKGVVPQKLWEAFWAVKDTMQAQDNITSARLLQQEVLQNVSDAESCYLVHTLLEFYLKTVFKNYHNRTVEVRTLKSFSTLANNFVLIVSQLQPSQENEMFSIRDSAHRRFLLFRRAFKQLDVEAALTKALGEVDILLTWMQKFYKL", "values": [
      {"measurement": "concentration giving complete abrogation of tubular formation", "setting": "[1]; HUVEC and HMVEC", "value": 10, "unit": "ng/mL"},
      {"measurement": "inhibition of endothelial tube formation", "setting": "[1]; HUVEC and HMVEC, 24 h", "value": "significant inhibition of endothelial tube formation"},
      {"measurement": "tubular formation in the presence of IL-10R neutralizing antibody", "setting": "[1]; HUVEC, antibody 5 ng, sMDA-7 5 ng", "value": "able to inhibit tubular formation"},
      {"measurement": "tube formation", "setting": "[1]; HUVEC, sMDA-7 5 ng", "value": "complete inhibition of tube formation"},
      {"measurement": "amount giving complete inhibition of migration", "setting": "[2]; MDA-7", "value": 50, "unit": "ng"},
      {"measurement": "endothelial cell migration induced by VEGF", "setting": "[2]; sMDA-7 10 ng/ml", "value": "blocked endothelial cell migration"},
      {"measurement": "IFN-γ induction", "setting": "[3]", "value": "IP-10 but not IFN-γ was induced"},
      {"measurement": "amount of IP-10 produced", "setting": "[3]; various time points", "value": "15 to 32", "unit": "pg/mL"},
      {"measurement": "pSTAT-3 protein expression", "setting": "[4]; HUVEC and HMVEC, Western blot", "value": "significant increase in the phosphorylated form of STAT-3 (pSTAT-3) protein expression as early as 4 h"},
      {"measurement": "nuclear localization of pSTAT-3", "setting": "[4]; HUVEC, immunofluorescence", "value": "increased nuclear localization of pSTAT-3 protein"},
      {"measurement": "time of maximal pSTAT-3 expression", "setting": "[4]; after treatment", "value": 24, "unit": "h"},
      {"measurement": "hemoglobin content in the matrigel", "setting": "[5]; day 10, vs no bFGF, only bFGF, or endostatin", "value": "very significant (p=0.0001) inhibitory effect; also recorded: significant reduction in hemoglobin content"},
      {"measurement": "bFGF-induced angiogenesis in matrigel", "setting": "[5]; sMDA-7 10 ng, 10 days after implantation", "value": "inhibition of bFGF-induced angiogenesis"},
      {"measurement": "serum levels of sMDA-7 detected by ELISA", "setting": "[6]", "value": "approximately 50 ng/ml"},
      {"measurement": "cell death above background levels", "setting": "[7]", "value": "10-15%"},
      {"measurement": "cytokine induction", "setting": "[8]", "value": "causes the induction of IFN-γ, IL-6 and TNF-α"}
    ]}
  ]
}
